Test results from paper PMC3623634 (Molecular Biology of the Cell, 2013).

T1: GST-Alp7 (full-length Alp7/TACC fused to GST) (fission yeast, UniProt Q9URY2 1-474)
T1 sequence (looked up): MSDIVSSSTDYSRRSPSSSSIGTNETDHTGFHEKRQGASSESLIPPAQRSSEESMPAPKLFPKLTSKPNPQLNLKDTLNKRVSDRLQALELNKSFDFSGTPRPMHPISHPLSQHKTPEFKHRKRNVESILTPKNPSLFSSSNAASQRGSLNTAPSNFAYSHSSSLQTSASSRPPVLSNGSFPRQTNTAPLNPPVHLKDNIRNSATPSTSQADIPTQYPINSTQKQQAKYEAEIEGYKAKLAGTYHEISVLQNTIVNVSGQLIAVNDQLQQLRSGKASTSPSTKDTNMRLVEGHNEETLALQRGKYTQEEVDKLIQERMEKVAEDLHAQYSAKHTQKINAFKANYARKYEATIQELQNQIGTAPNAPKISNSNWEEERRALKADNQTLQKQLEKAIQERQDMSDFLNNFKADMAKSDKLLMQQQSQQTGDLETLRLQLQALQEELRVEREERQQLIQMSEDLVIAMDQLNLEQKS

T2: GST-Alp7C (C-terminal half of Alp7, TACC domain, residues 219-474) (fission yeast, UniProt Q9URY2 219-474)
T2 sequence (looked up): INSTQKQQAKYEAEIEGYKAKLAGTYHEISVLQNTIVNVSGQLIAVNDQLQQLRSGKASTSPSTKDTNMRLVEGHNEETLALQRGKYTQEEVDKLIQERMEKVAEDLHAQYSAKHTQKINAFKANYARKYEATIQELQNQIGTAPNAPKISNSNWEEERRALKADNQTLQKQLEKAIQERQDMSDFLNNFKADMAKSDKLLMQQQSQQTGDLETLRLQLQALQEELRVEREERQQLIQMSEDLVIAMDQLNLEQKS


How the values were obtained:
[1] = target: T1, GST-Alp7 (full-length Alp7/TACC fused …); experiment: peptide or protein array
[2] = target: T2, GST-Alp7C (C-terminal half of Alp7, …); experiment: peptide or protein array

Row | binding result [1] | binding result [2] | Binder
1 | binds | binds | DSLEKKVQKLNSLA (peptide, UniProt Q10198 411-424, looked up) [Ndc80 loop peptide (411-424) with F420 replaced by leucine]
2 | binds | binds | DSLEKKVQKINSLA (peptide, UniProt Q10198 411-424, looked up) [Ndc80 loop peptide (411-424) with F420 replaced by isoleucine]
